Test system: peptide library, one residue held at a place counted from the S/T acceptor
Assay: relative phosphorylation of the sub-library (ratio to the mean residue at this position); higher = residue favoured
Settings: human
Summary of the method: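 Relative sub-library phosphorylation, a ratio to the mean residue at that position, was obtained by phosphorimaging and densitometry of spots on streptavidin membranes. Before capture, purified recombinant kinases were incubated for 90 min under kinase-specific conditions with 50 μM biotinylated degenerate peptide sub-libraries and 50 μM ATP spiked with γ-32P-ATP. Each sub-library fixed one residue at one position around a central Ser/Thr.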

Sequence of TRPM7, construct: aa1158-1865 (Q96QT4 1158-1865, looked up): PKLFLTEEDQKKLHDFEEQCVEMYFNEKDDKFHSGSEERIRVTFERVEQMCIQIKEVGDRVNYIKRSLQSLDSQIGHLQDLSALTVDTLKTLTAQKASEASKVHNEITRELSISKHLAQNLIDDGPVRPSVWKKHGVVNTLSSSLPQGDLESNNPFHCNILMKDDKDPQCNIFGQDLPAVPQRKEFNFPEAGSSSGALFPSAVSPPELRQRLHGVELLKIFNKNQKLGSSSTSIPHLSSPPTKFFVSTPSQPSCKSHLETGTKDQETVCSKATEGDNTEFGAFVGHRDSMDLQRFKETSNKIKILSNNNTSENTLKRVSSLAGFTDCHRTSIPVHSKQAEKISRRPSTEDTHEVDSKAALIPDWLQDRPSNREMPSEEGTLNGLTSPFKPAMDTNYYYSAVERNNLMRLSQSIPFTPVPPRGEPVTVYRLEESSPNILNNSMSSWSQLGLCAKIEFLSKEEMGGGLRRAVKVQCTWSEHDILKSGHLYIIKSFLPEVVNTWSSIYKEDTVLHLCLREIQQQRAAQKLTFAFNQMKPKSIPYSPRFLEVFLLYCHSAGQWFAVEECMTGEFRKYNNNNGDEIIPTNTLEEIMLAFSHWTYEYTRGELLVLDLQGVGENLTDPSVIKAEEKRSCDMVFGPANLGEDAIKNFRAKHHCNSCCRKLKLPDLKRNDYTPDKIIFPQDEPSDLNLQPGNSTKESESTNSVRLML
Sequence of ULK2, construct: aa1-478 (Q8IYT8 1-478, looked up): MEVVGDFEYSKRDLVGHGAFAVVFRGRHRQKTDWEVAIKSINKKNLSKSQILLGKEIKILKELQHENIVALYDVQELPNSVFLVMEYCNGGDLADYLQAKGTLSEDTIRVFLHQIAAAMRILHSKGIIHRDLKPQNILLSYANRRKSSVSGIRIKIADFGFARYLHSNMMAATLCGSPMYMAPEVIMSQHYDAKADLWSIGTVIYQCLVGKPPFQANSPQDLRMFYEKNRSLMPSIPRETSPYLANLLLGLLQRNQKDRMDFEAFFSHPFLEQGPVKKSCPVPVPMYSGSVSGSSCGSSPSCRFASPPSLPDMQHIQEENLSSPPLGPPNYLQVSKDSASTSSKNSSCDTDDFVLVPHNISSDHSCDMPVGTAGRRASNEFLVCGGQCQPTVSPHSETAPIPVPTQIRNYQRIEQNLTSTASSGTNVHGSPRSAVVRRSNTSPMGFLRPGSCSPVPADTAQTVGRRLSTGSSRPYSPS

TRPM7, construct: aa1158-1865 (from UniProt Q96QT4)
relative phosphorylation
Settings | at +1 | at +2 | at +3 | at +4 | at -1 | at -2 | at -3 | at -4 | at -5
A fixed | 0.649 | 1.18 | 1.19 | 0.591 | 0.902 | 1.13 | 0.852 | 1.08 | 1.17
D fixed | 0.266 | 0.121 | 0.341 | 0.604 | 0.484 | 0.551 | 0.659 | 0.821 | 0.972
E fixed | 0.501 | 0.0976 | 0.256 | 0.561 | 0.489 | 0.576 | 0.836 | 1.07 | 1.05
F fixed | 0.859 | 1.81 | 0.854 | 0.958 | 0.58 | 1.19 | 1.06 | 1.19 | 1.03
G fixed | 0.451 | 0.661 | 0.904 | 0.871 | 0.406 | 1.28 | 0.897 | 1.08 | 1.4
H fixed | 1.1 | 1.22 | 1.22 | 1.34 | 1.47 | 0.842 | 1.05 | 0.86 | 1.1
I fixed | 1.26 | 0.601 | 0.42 | 0.781 | 0.46 | 0.446 | 0.686 | 0.668 | 0.532
K fixed | 2.16 | 1.21 | 2.47 | 2.09 | 2.76 | 0.931 | 1.13 | 1.31 | 1.24
L fixed | 1.18 | 0.477 | 0.662 | 0.859 | 0.996 | 0.868 | 1.01 | 0.872 | 0.608
M fixed | 1.06 | 0.808 | 0.664 | 1.12 | 0.969 | 1.42 | 1.19 | 1.17 | 0.767
N fixed | 0.54 | 0.445 | 1.11 | 1.16 | 1.25 | 0.857 | 1.48 | 1.09 | 1.2
P fixed | 0.142 | 1.42 | 0.623 | 0.676 | 0.896 | 1.28 | 1.07 | 0.972 | 1.1
Q fixed | 1.58 | 1.11 | 1.15 | 1.17 | 1.07 | 1.11 | 0.995 | 0.948 | 1.01
R fixed | 2.14 | 2.06 | 2.52 | 1.61 | 2.11 | 0.975 | 1.36 | 1.17 | 1.29
V fixed | 1.1 | 0.572 | 0.573 | 0.637 | 0.586 | 0.553 | 0.74 | 0.675 | 0.732
W fixed | 0.79 | 1.4 | 0.831 | 1.13 | 0.487 | 2.17 | 1.02 | 1.12 | 0.976
Y fixed | 1.22 | 1.81 | 1.21 | 0.852 | 1.08 | 0.822 | 0.954 | 0.884 | 0.811
pThr fixed | 0.455 | 0.317 | 0.499 | 0.68 | 0.488 | 0.704 | 0.893 | 1.11 | 1.05
pTyr fixed | 0.856 | 0.489 | 0.677 | 0.541 | 0.776 | 0.675 | 1.09 | 0.916 | 1.08

ULK2, construct: aa1-478 (from UniProt Q8IYT8)
relative phosphorylation
Settings | at +1 | at +2 | at +3 | at +4 | at -1 | at -2 | at -3 | at -4 | at -5
A fixed | 0.728 | 0.707 | 0.906 | 0.969 | 1.08 | 1.11 | 0.982 | 1.31 | 1.38
D fixed | 0.31 | 0.349 | 0.794 | 0.811 | 1.04 | 1.1 | 0.736 | 1.16 | 1.29
E fixed | 0.365 | 0.348 | 0.775 | 0.701 | 0.927 | 1.05 | 0.599 | 0.953 | 1.08
F fixed | 1.4 | 0.962 | 0.824 | 0.652 | 0.63 | 1.14 | 0.873 | 0.616 | 0.704
G fixed | 0.631 | 0.582 | 1.39 | 1.28 | 1.09 | 1.12 | 1.24 | 1.47 | 1.23
H fixed | 0.927 | 1.62 | 1.19 | 1.17 | 0.923 | 1.31 | 0.774 | 1.05 | 1.11
I fixed | 1.49 | 1.03 | 0.872 | 0.796 | 0.637 | 0.728 | 0.739 | 0.685 | 0.679
K fixed | 0.863 | 1.09 | 1.51 | 1.43 | 1.53 | 0.703 | 0.63 | 0.968 | 1.21
L fixed | 1.07 | 0.851 | 0.858 | 0.831 | 0.788 | 0.843 | 1.54 | 0.738 | 0.748
M fixed | 1.78 | 1.08 | 0.867 | 0.938 | 1.11 | 1.11 | 2.88 | 0.946 | 0.705
N fixed | 0.665 | 0.848 | 0.895 | 1.02 | 1.12 | 1.18 | 1.12 | 1.24 | 1.16
P fixed | 0.167 | 0.441 | 0.832 | 1.28 | 0.567 | 0.492 | 0.774 | 1.19 | 1.01
Q fixed | 1.37 | 0.846 | 0.932 | 1.01 | 1.4 | 0.965 | 0.955 | 0.91 | 0.995
R fixed | 1.05 | 1.59 | 1.37 | 1.28 | 1.48 | 0.655 | 0.693 | 0.965 | 1.1
V fixed | 1.53 | 1.02 | 0.945 | 0.863 | 1.02 | 0.774 | 0.808 | 0.748 | 0.815
W fixed | 1.14 | 1.6 | 1.02 | 1.11 | 0.814 | 1.6 | 1.02 | 1.3 | 1.02
Y fixed | 1.51 | 2.04 | 1.02 | 0.854 | 0.85 | 1.12 | 0.652 | 0.761 | 0.754
pThr fixed | 0.659 | 0.378 | 0.594 | 0.749 | 0.557 | 0.6 | 0.707 | 0.833 | 0.782
pTyr fixed | 0.882 | 0.714 | 0.817 | 0.647 | 0.923 | 1.04 | 0.619 | 0.547 | 0.707
